Laboratory results: publication PMC4976285

Target: HLA-A*0201 molecules on the surface of T2 cells (human (endogenous in T2) | human)
Assay: flow cytometry on cells

**Q.** With “HTNV nucleoprotein peptide FA9 (aa129–aa137, …)” as the substance, how does the fluorescent index (FI) read?
**A.** The fluorescent index (FI) was 2.77.
